Consider twelve sequences from the DeepSol protein solubility set.

The series in a line: soluble on expression in E. coli; label from the status in PepcDB or PDB records.
Regarding “MSLKTHKKVKIPILLKIAKLPKSSFYEWKHKLENTIDKDKELKEMIVDIFSKSFETYGYRRLKMALKSKGYIVNHKKILRLTKELGVQCIKFRTKNGRYSSYKGTVGKIADNVLKRNFHSLQANKLWCTDVTEFKVNGQKLYLSPIIDLYNDEIISYSIQTNPNLNLTNSMLDKALKKVKNTNGFLIHSDQGFHYQHISWAKKLEENNITQSMSRKGNCLDNAIIENFFGLLKQEIYYGEKYNSVEELTKRIHKYIYWYNNIRIKEKLKGLSPVQFRKQSCYNIEGHHHHHH”, the “soluble on expression in E. coli” value was “not soluble”. For “MSLKTKYIFVTGGVVSSLGKGITAASLGRLLKNRGLKVSIQKFDPYINVDPGTMSPYQHGEVFVTDDGAETDLDLGHYERFIDENLSKNSNVTTGKVYWSVINKERRGDYLGGTVQVIPHITNELKERVYRVAKEKDVDVVITEIGGTVGDIESLPFLEAIRQIKYEVGFGNSCFIHVTLLPYLRKAGEIKTKPTQHSVKELRGIGIQPDIIVCRTEKEISKDVRSKIGLFCNIDGDSVISNLDAENLYEVPLMLHDQGLDSLVCKKLELECQEVDNSEWESMVKNIKSLSGEVTIGLVGKYVELHDAYISVVESLNHGGFANNVSVNVKWINSEEVTKDNVDSVLSDVDGILVPGGFGDRGIEGKIEAIRWARENKIPFFGICLGMQCAVIEYARNVLGLEGAHSSEIDPQTKYPVIDLMPDQKDIDDKGGTMRLGLYACKLSKDTNAYDAYEEEVIYERHRHRYEFNNEFRKRLTEEGLILAGTSPDDRLVEIVEIKDHPWFVGVQFHPEFKSRPNRPHALFRDFIKVACTVKEKEGHHHHHH”, the “soluble on expression in E. coli” value is reported as “soluble”. In the case of “MSLKTLAFDTSNKTLSLAILDDETLLADMTLNIQKKHSVSLMPAIDFLMTCTDLKPQDLERIVVAKGPGSYTGLRVAVATAKTLAYSLNIALVGISSLYALAASTCKQYPNTLVVPLIDARRQNAYVGYYRQGKSVMPQAHASLEVIIEQLVEEGQLIFVGETAPFAEKIQKKLPQAILLPTLPSAYECGLLGQSLAPENVDAFVPQYLKRVEAEENWLKDNEIKDDSHYVKRIEGHHHHHH”, the “soluble on expression in E. coli” value was “soluble”. For “MSLKTLSLCPICLKRIPATILEEDGKIIIKKTCPEHGEFKDIYWGDAELYKKFDKYEFIGKIEVTNTKVKNGCPYDCGLCPNHKSTTILANIDVTNRCNLNCPICFANANKSGKVYEPSFEDIKRMMENLRKEIPPTPAIQFAGGEPTVRSDLPELIKLARDMGFLHVQLATNGIKLKNINYLKKLKEAGLSTIYLQFDGISEKPYLVARGKNLLPIKQKVIENCKKVGFDSVVLVPTLVRGVNDNEVGGIIRYAAENVDVVRGINFQPVSFTGRVDEKTLLEGRITIPDFIKLVEEQTDGEITEEDFYPVPSVAPISVLVEKLTNDRKPTLSSHQHCGTSTYVFVDEDGKLIPITRFIDVEGFLEIVKEKIEEIGKSKMHDVKVLGEIALKLPSLIDLDKAPKSVNIKKIIDLILSVLKSDYSALAELHYHMLMISCMHFMDAYNFDVKRVMRCCIHYATPDDRIIPFCTYNTLHRQEVEEKFSIPLEEWKRMHKIGGEDDREDYEGHHHHHH”, the “soluble on expression in E. coli” value was “soluble”. The entry for “MSLKTQQSYQQRDDKGTLYLVATPIGNLEDVTFRAIRTLKEADQIAAEDTRQTKKLLNHFDIATKLVSYHEHNKETMGKRLIDDLIEGRTIALVSDAGMPAISDPGYELVVSAIKEGIAVIPIPGANAAVTALIASGLPTESFQFIGFLPRQKKQRRQALEETKPTKATLIFYESPHRLKDTLDDMLLILGNRHVSICRELTKTYEEFLRGTLEEAVHWAREATIKGEFCLIVEGNGEKVEPEEVWWESLSPVQHVEHYIALGFRSKEAIKQVATDRGVPKRDIYNIYHQEEGHHHHHH” is “soluble”. The entry for “MSLKTVEEQAKNIYQLLEMVYGTSPWTLEQVLIDIRRDQTDYFLLYDHDKLLGFLAIQDLAGEVEMTQIAILPSHQELGLASQLMTHLDSIESDIFLEVRESNHRAQGLYQKFGFKFIGKRPDYYRNPIETALLMKREGKHDREGHHHHHH” is “soluble”; for “MSLKVALLQIDTVVGDIVGNAARIADAVREAASLGARLCVTPELALCGYPPRDLLLQDDFVPACRKALEALAQQLRDLPPVLVGAPVPNPSPVGNPIHNCAVLLREGKVTVATRKVLLPNYDVFDERRYFESGVGCGVVTIDGWRFGVTICEDVWNDKTFWQEHRHYENDPVADLMAGGADAILNLSASPFTLGKQAVRERMLSRVAFRYRVSVLYANQVGGNDDLVFAGKSIAFDATGTLIARGRSFAEDIVMVDVAQATGTITAEPTSDEEQVWKALVLGTRDYARKCGFDGAVLGLSGGIDSALVAAVAAEALGPDKVLGVLMPSPHSSEGSVTDALALASSLGIATCTIPIGDLMHGFEAALAQAFAGREADVTEENIQSRIRGNLLMALSNKQRRLLLTTGNKSELAVGYCTIYGDMAGGLAVIADLPKTLVYRVAHWLNERDTSHGHEGREARETIPSAILTKEPSAELRPGQRDSDSLPPYDVLDGILERLVELRRSAADIVAEGYDVETVRKVLRLVCNAEFKRRQAPPGLKVTDRAFGTGWRMPVAARVNLGEGHHHHHH” it is “soluble”; for “MSLKVALVHDWLTNMGGAERVIINLKEIYKEAPIYTSLYNPDKLDDELRNIDVRTSFLQKPKNIKRGHQKLLPFMPMAFESFDLNEYDIVLSSCSSCAKGVVTNPNTMHVCYCHTPMRYAWEYYYEYADEWGLNKLKGKLLKYVMNYIRLWDGVSSKRVDYYIANSQNVAKRIWKHYKRESVVIHPPVRCKLFDISDVNEEYFLIVSRLVPYKRIDLAVEVFNELGLPLVVIGGGKDLDRLKNMAKDNIKFLGRQSDEVIKEYYSKCRAFIFPGEEDFGITPLEAQASGRPVIAYGKGGALETVVSGVTGVFFKEQTVDSLKSAVNEFEKINFDKSVIRRHAEEFDEEIFKKKIREYLSRSYDEFKKLKKWKVEGHHHHHH” it is “soluble”.

Consider “MSLKVHLNYETGPEHWADLQSRLAPGIRLSSGECRPANGFDILVSGEPTLEELEGNGRLRAVIVPWVGVPLATLDRMKEFPSIALHNLPYNIGPTAEMAVALLLAAAKRIVPYDQRLRRGYWSGEHTGVPGSVMLDGGLAVILGYGRIGRRVAAACRGLGMRIAGVRRNPGTSDEEYALADLSGLLPQAAALIVCLPHTHQTDRLIGSRELERLPSNAVLVNVARGGIVNEEALYRTLQARRIYAAGIDVWYRYPSATERKQGLPHPPSSFPFHTLDNVVMSPHRAGWSEEKEPARIAELANMLNAAARGEGHHHHHH”, for which the “soluble on expression in E. coli” value was “not soluble”. Consider “MSLKVKSIKAITLSMPFSHGGKKVIFHGKEWKSLEFNLIRLETDKGIVGWGEAFGFSSWKAVRVAIEEMVAPMIIGKDMSNIPELLLNLQKSLHLFGRYGITMFAISGVEIALWDAFGKEKNKPVHELLGKKNNDIFKAYSSLFRYGDPKIIEQKCKQSLDDGYRAIKLHEIENNCIEAGRKGTGDLPMMLDTNCPWTYEQTLAKKDFLKSMNLTWLEEPIYPPEDYQTLAKLNKELGIPLACGENACTEYEFKSMIDHKAVSFVQPSVIKVGGIYEMFKIINIAEDKNISVMPHTAYFGPGFLATLQLAALMKKETYIERFYLDIDEEFYPNFKKALNGKYNLPKGPGLGIDLDYKRLSKYEIEGHHHHHH”, for which the “soluble on expression in E. coli” value is “soluble”. The entry for “MSLKVVSLLTDFGDFYPGVMKGVILSLAPEARIVDITHSVEPQNILQGAFLLYHSFRYFRNAVHVAVVDPGVGSERRALVIEGKNHFFVGPDNGILYPSAVEDGIKAAYSIKEEISELVGELSSTFHGRDIFAPAAAMVVRGDYTYFEEINKEELEKLELFDCSIQGNKVRCRVVYVDRFGNVVTNLREVKGKGFYFRGVEFPFVKTYSDVDVGKPLSLIGSFGTLELSVREGSAAEMLGIKRGGGWIELEVLEGGSHHHHHH” is “soluble”. With “MSLKYDYVIIGNSAGGIGCVEAIRELDVDSSILVISAEKYHAYSRALIPYYLDGKIEFEKMYYRPPDFYEKMDVETKLGVRAVGVDVEAKKVLLESGEEVEYGKLLIATGGKPFIPPMEGLGGQSNVFTFLKMDDVLAVEKAIKEAKKAVVLGGGIIGLMASEVLAKKGLDVKVVELADRVLAPVVDETTSRIVERKFEENGVEIILNNTISKVVGEERVEKVILRDGRELEADMLLVAVGVVPNVDIVKNTPIKVNRGIVVNRKMETSVKDVYACGDCAEIYDFVFGANRVLPLWPTAYTGGRIAGFNMVGIEREYNLATSMNAMHFFDYYIINAGLNVPNDSEEFEVIYRLEGDSYRKFALKDGRIAGFIIAGKMERAGIFLKLMEEGIDVSSFKEKLLKDNFGFLDIPEPTRWKLIEDKIKLGVVREIEGHHHHHH”, the “soluble on expression in E. coli” value is recorded as “soluble”.
